Among the data in paper PMC4671958, “Structure of the Helicase Domain of DNA Polymerase Theta Reveals a Possible Role in the Microhomology-Mediated End-Joining Pathway” are Kd values, retold here.

In the series the target is Polθ-HLD (DNA polymerase theta helicase domain) (Homo sapiens, UniProt O75417 67-894). In words: fluorescence polarization; low salt, 50 mM NaCl; stated as single digit nM; 10 mM HEPES pH 7.5, 150 mM NaCl (low salt: 50 mM NaCl), 10 nM probe; temperature not stated in material. Conditions: protein: recombinant; tags: His6 tag cleaved with TEV; chain copies: 4; label: 5' fluorescein (FITC); single strand.
Sequence of Polθ-HLD (DNA polymerase theta helicase domain) (O75417 67-894): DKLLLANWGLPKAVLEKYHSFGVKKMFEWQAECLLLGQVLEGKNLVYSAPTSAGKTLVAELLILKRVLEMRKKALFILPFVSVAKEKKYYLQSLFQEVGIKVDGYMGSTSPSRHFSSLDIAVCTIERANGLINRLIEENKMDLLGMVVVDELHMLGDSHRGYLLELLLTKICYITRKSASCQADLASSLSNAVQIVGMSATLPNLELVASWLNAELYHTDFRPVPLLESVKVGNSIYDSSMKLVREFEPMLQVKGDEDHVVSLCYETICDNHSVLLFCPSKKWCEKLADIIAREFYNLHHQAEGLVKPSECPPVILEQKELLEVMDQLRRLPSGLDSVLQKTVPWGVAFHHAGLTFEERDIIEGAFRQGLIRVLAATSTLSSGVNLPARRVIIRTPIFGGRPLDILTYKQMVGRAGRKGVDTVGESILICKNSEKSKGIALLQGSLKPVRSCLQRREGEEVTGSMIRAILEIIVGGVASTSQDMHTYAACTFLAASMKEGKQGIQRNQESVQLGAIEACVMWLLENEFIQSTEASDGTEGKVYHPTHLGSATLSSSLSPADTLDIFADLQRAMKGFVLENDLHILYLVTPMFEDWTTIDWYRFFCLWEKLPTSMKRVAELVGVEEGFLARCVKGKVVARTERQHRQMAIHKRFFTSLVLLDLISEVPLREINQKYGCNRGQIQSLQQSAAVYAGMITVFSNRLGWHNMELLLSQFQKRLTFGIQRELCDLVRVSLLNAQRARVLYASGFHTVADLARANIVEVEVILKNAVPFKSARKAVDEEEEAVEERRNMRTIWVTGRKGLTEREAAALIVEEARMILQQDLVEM

For orientation: Kd means a measure of binding affinity in units of concentration.

B1: Single stranded (POLQ-1) (ssDNA)
DNA: ATCGATAGTCGGATCCTCTAGACAGCTCCATGTAGCAAGGCACTGGTAGAATTCGGCAGCGTC
B1: the Kd was less than 10 nM.
